Consider 3 molecules from US7041498 (SALK INSTITUTE FOR BIOLOGICAL STUDIES, dated 2006).

Sequences and labels used below:
B1: VP16 transactivation domain linked to the LBD of VDR (VP-VDR92-427) (other)
chain: EFILTDEEVQRKREMILKRKEEEALKDSLRPKLSEEQQRIIAILLDAHHKTYDPTYSDFCQFRPPVRVNDGGGSHPSRPNSRHTPSFSGDSSSSCSDHCITSSDMMDSSSFSNLDLSEEDSDDPSVTLELSQLSMLPHLADLVSYSIQKVIGFAKMIPGFRDLTSEDQIVLLKSSAIEVIMLRSNESFTMDDMSWTCGNQDYKYRVSDVTKAGHSLELIEPLIKFQVGLKKLNLHEEEHVLLMAICIVSPDRPGVQDAALIEAIQDRLSNTLQTYIRCRHPPPGSHLLYAKMIQKLADLRSLNEEHSKQYRCLSFQPECSMKLTPLVLEVFGNEIS
notes: range 92-427
B2: VP16 transactivation domain linked to the LBD of mouse PPARα (VP-PPAR155-468) (other)
chain: YCRFHKCLSVGMSHNAIRFGRMPRSEKAKLKAEILTCEHDLKDSETADLKSLGKRIHEAYLKNFNMNKVKARVILAGKTSNNPPFVIHDMETLCMAEKTLVAKMVANGVEDKEAEVRFFHCCQCMSVETVTELTEFAKAIPGFANLDLNDQVTLLKYGVYEAIFTMLSSLMNKDGMLIAYGNGFITREFLKNLRKPFCDIMEPKFDFAMKFNALELDDSDISLFVAAIICCGDRPGLLNIGYIEKLQEGIVHVLKLHLQSNHPDDTFLFPKLLQKMVDLRQLVTEHAQLVQVIKKTESDAALHPLLQEIYRDMY
notes: range 155-468; Two-hybrid prey expressed in CV-1 cells
B3: VP16 transactivation domain linked to the LBD of RARα (VP-RAR156-462) (other)
chain: ESVRNDRNKKKKEVPKPECSESYTLTPEVGELIEKVRKAHQETFPALCQLGKYTTNNSSEQRVSLDIDLWDKFSELSTKCIIKTVEFAKQLPGFTTLTIADQITLLKAACLDILILRICTRYTPEQDTMTFSDGLTLNRTQMHNAGFGPLTDLVFAFANQLLPLEMDDAETGLLSAICLICGDRQDLEQPDRVDMLQEPLLEALKVYVRKRRPSRPHMFPKMLMKITDLRSISAKGAERVITLKMEIPGSMPPLIQEMLENSEGLDTLSGQPGGGGRDGGGLAPPPGSCSPSLSPSSNRSSPATHSP
notes: range 156-462

This experiment has as its target T1, GAL4 linked to the FAR ligand binding domain (GAL4-FAR184-469) (yeast; rat, UniProt P04386 1-147).
T1 construct: range 1-147; Two-hybrid bait expressed in CV-1 cells from a CMV promoter vector; also called GAL4-FAR chimera; FAR LBD
In words: mammalian two-hybrid in CV-1 cells, GAL4 UAS luciferase reporter. For orientation: A reporter such as luciferase makes a cellular process visible.
On to B1, for which the binding result is given as “no binding”.
B2: the binding result was “no binding”.
With B3, the binding result was “no binding”.
